What was measured:
[1] = system: 1 cm incisional rat wounds; assay: Reduction in scarring of rat wounds treated with IL-10 in two incidences of treatment; format: in vivo; conditions: for percentage reduction in scarring compared to placebo control: approximately 24 hours apart
Protocol: FIG. 13 is a graph showing the percentage reduction in scarring, as compared to placebo control, achieved in scars formed on healing of 1 cm incisional rat wounds treated with IL-10 administered by means of intradermal injection in two incidences of treatment, the first prior to wounding and the second approximately 24 hours later. Wounds dosed with IL-10 received either two injections of 500 ng/100 μl IL-10, two injections of 1000 ng/100 μl IL-10, or an escalating dose regime in accordance with the present invention, in which the first injection comprised 500 ng/100 μl IL-10 and the second injection comprised 1000 ng/100 μl IL-10.
Arrow heads mark the ends of the scars 70 days post wounding.

[2] = system: inflammatory cells in 1 cm incisional rat wounds; assay: Percentage of inflammatory cells (CD68 staining) in rat wounds; format: in vivo; conditions: 3 days post treatment
Excerpt: Wounds were excised from the experimental rats at 3 days post treatment, fixed in 10% (v/v) buffered formal saline, processed for histology and stained with CD68 to assess inflammatory cell numbers.

B1: IL-10: interleukin-10, anti-scarring agent; amino acid sequence of human IL-10 in Sequence ID No. 3 (protein, listed as Homo sapiens)
chain: MSPGQGTQSENSCTHFPGNLPNMLRDLRDAFSRVKTFFQMKDQLDNLLLKESLLEDFKGYLGCQALSEMIQFYLEEVMPQAENQDPDIKAHVNSLGENLKTLRLRLRRCHRFLPCENKSKAVEQVKNAFNKLQEKGIYKAMSEFDIFINYIEAYMTMKIRN
- inhibition of scarring, macroscopic images ([1]; escalating 500 then 1000 ng/100 μl versus 500 ng/100 μl twice, 70 days post wounding): greater inhibition of scarring
- reduction in scarring versus constant doses ([1]; escalating: 500 ng/100 μl then 1000 ng/100 μl approximately 24 hours later): much larger magnitude of effect
- percentage reduction in scarring compared to placebo control ([1]; two injections of 500 ng/100 μl): 27.5%
- percentage reduction in scarring compared to placebo control ([1]; two injections of 1000 ng/100 μl): 22.8%
- infiltration of inflammatory cells into the wound compared to controls [2]: reduces infiltration of inflammatory cells
- inflammatory cell numbers versus same dose given twice ([2]; escalating: 500 ng/100 μl then 1000 ng/100 μl): surprisingly marked decrease in inflammatory cell numbers

Reference: US20100266532A1, “METHODS FOR INHIBITING SCARRING” (Renovo Limited, priority 2007, published 2010)
